The target in the experiment is Activin (UniProt P08476). As to the kind of experiment: SPR.

B1: human recombinant BMPR-II ECD, wild type (domain or fragment)
chain: ASQNQERLCAFKDPYQQDLGIGESRISHENGTILCSKGSTCYGLWEKSKGDINLVKQGCWSHIGDPQECHYEECVVTTTPPSIQNGTYRFCCCSTDLCNVNFTENFPPPDTTPLSPPHSFNRDET
Broadly, the Kd is a measure of binding affinity in units of concentration. A low value points to tighter binding. Molecule B1 had a dissociation constant Kd of 26 µM.

B2: BMPR-II ECD Y40G (domain or fragment)
chain: ASQNQERLCAFKDPGQQDLGIGESRISHENGTILCSKGSTCYGLWEKSKGDINLVKQGCWSHIGDPQECHYEECVVTTTPPSIQNGTYRFCCCSTDLCNVNFTENFPPPDTTPLSPPHSFNRDET
With B2, the Kd is 54 µM.

B3: BMPR-II ECD G47N (domain or fragment)
chain: ASQNQERLCAFKDPYQQDLGINESRISHENGTILCSKGSTCYGLWEKSKGDINLVKQGCWSHIGDPQECHYEECVVTTTPPSIQNGTYRFCCCSTDLCNVNFTENFPPPDTTPLSPPHSFNRDET
The molecule B3 showed a Kd of 30 µM.

B4: BMPR-II ECD Y40R (domain or fragment)
chain: ASQNQERLCAFKDPRQQDLGIGESRISHENGTILCSKGSTCYGLWEKSKGDINLVKQGCWSHIGDPQECHYEECVVTTTPPSIQNGTYRFCCCSTDLCNVNFTENFPPPDTTPLSPPHSFNRDET
In the case of B4, the equilibrium dissociation constant (Kd) was determined as 46 µM.

B5: BMPR-II ECD Y40Q (domain or fragment)
chain: ASQNQERLCAFKDPQQQDLGIGESRISHENGTILCSKGSTCYGLWEKSKGDINLVKQGCWSHIGDPQECHYEECVVTTTPPSIQNGTYRFCCCSTDLCNVNFTENFPPPDTTPLSPPHSFNRDET
With B5, the Kd worked out at 35 µM. This Kd and that of the molecule before are within 1.5-fold of each other.

B6: BMPR-II ECD S107P (domain or fragment)
chain: ASQNQERLCAFKDPYQQDLGIGESRISHENGTILCSKGSTCYGLWEKSKGDINLVKQGCWSHIGDPQECHYEECVVTTTPPPIQNGTYRFCCCSTDLCNVNFTENFPPPDTTPLSPPHSFNRDET
B6: the Kd came to 23 µM.

B7: BMPR-II ECD Y40P (domain or fragment)
chain: ASQNQERLCAFKDPPQQDLGIGESRISHENGTILCSKGSTCYGLWEKSKGDINLVKQGCWSHIGDPQECHYEECVVTTTPPSIQNGTYRFCCCSTDLCNVNFTENFPPPDTTPLSPPHSFNRDET
B7 returned a Kd of 70 µM.

(Values after article PMC3481545.)
